Assay type in all cases: physicochemical
The nature of data set [1]: Retention of arrayed peptides on a polypropylene sheet after successive washes. Particulars: for Corrected signal: slide background subtracted. How it is done:
Further experiments were undertaken to investigate the retention of peptides P1-1 to P1-5 and P2-1 to P2-2, shown in Table 3, on a polypropylene surface.
The polypropylene sheet was wiped with 50% (v/v) aqueous acetonitrile prior to use.
8×replicate 20 nl volumes of 1 μM peptides P1-1 to P1-5 and P2-1 to P2-2 and TAMRA in dimethyl sulphoxide (DMSO) were dispensed at 1 mm spacing to a 3″×1″×1 mm polypropylene sheet using the Piezorray system (PerkinElmer LAS). 500 drops were pre-dispensed using the ‘side shoot’ option and the tuning was set to 72V for 30 μs.
The slide was imaged at 10 μm resolution on a Typhoon Trio Plus variable mode imager (Amersham Biosciences) with the green (532 nm) laser and the 580 BP 30 filter at a PMT voltage of 600 V and at normal sensitivity. The scan height was set at the platen and the samples were pressed during scanning. The fluorescence image was analysed using ImageQuant TL v2003.03 (Amersham Biosciences).
The lower half of the slide (containing the test array) was then washed in 100 ml of 1 M NaCl containing 10 mM tris-HCl (pH 8.0) for one minute and were re-scanned as described above.
The same half of the slide was then washed for a second time in 100 ml of 1 M NaCl containing 10 mM tris-HCl (pH 8.0) for 30 minutes and re-scanned as described above.
The same half of the slide was then washed for a third time in 100 ml of water for 30 minutes and re-scanned as described above.

The nature of data set [2]: Time-dependent persistence of peptide on polypropylene in aqueous buffer. The conditions noted are these: 1 M NaCl/10 mM tris-HCl (pH 8.0). How it is done:
The time-dependent persistence of peptide 2DOS-2 (see above) deposited onto a polypropylene hydrophobic surface in the presence of aqueous buffer was investigated as shown below:
Twelve 100 μl aliquots of 5 μM peptide 2DOS-2 in 5 mM tris-HCl (pH 8.0) in 75% (v/v) aqueous acetonitrile were dispensed to the wells of the top row of a Costar microtitre plate.
(§1) The peptide samples were allowed to evaporate to dryness in the dark.
The dried peptide samples in wells 1-10 were incubated with 250 μl of 1 M NaCl in 10 mM tris-HCl (pH 8.0) for the time indicated below at room temperature. All supernatants were pipetted up and down 8 times after incubation and the supernatants were then removed and placed in the wells of the bottom row of the microtitre plate. […]
(§2) The fluorescence images were analysed using ImageQuant TL v2003.03 (Amersham Biosciences).
Fluorescence data for the time-dependent persistence of peptide 2DOS-2 deposited onto a polypropylene hydrophobic surface in the presence of aqueous buffer are shown in FIG. 17: […]

Data set [3] in a line: pH resistance of peptide deposited onto polypropylene. The conditions noted are these: maximal retention at low and high pH, minimal around pH 6.5. The procedure: The pH resistance of peptide 2DOS-2 (see above) deposited onto a polypropylene hydrophobic surface was investigated:
Twelve 50 μl aliquots of peptide 2DOS-2 in 10 mM tris-HCl (pH 8.0) in 50% (v/v) aqueous acetonitrile were dried down in the wells of a Costar microtitre plate.
as §1
The dried peptide samples in the first eleven wells were incubated with 200 μl of 100 mM phosphate buffer for 30 minutes at room temperature according to the scheme shown in Table 7:
All supernatants were pipetted off and the residual surface-bound peptides in all twelve wells were finally resuspended in 50 μl of 10,mM tris-HCl (pH 8.0) in 50% (v/v) aqueous acetonitrile and the microtitre plate was imaged at 200 μm resolution on a Typhoon Trio Plus variable mode imager (Amersham Biosciences) with the green (532 nm) laser and the 580 BP 30 filter at the PMT voltages indicated below and at normal sensitivity. The scan height was set at +3 mm and the sample was pressed during scanning.
as §2
Quantification data for peptide 2DOS-2 retention (using data from the 300V scan) are given in Table 8 and graphically in FIG. 16: […]

Setting [4] is: Control array (not washed), scan after first wash.
[5] abbreviates: Control array (not washed), scan after second wash.
The mark [6] stands for this setting: Control array (not washed), scan after third wash.
Where [7] appears, read: Test array, after first wash (1 M NaCl, 10 mM tris-HCl pH 8.0, one minute).
Setting [8] is: Test array, after second wash (1 M NaCl, 10 mM tris-HCl pH 8.0, 30 minutes).
[9] abbreviates: Test array, after third wash (water, 30 minutes).

No end group written: not given here. TAMRA = rhodamine dye label at the N-terminus (mixture of 5- and 6-isomers)

As for “TAMRA-F-G-F-S-F-A-F-D-F-G-F ({TAMRA}-FGFSFAFDFGF) [Peptide P1-1]”, the Average fluorescence was 244,263,013 in data set [1] (setting [4]); 225,863,933 in data set [1] (setting [5]); 218,342,010 in data set [1] (setting [6]); 157,624,537 in data set [1] (setting [7]); 127,216,792 in data set [1] (setting [8]); 124,941,941 in data set [1] (setting [9]). Also, the Corrected signal is 97,571,341 in data set [1] (setting [4]); 88,584,083 in data set [1] (setting [5]); 84,434,769 in data set [1] (setting [6]); 3,126,578 in data set [1] (Test array, after first wash); −5,230,512 in data set [1] (Test array, after second wash); 644,716 in data set [1] (Test array, after third wash).
Regarding “TAMRA-F-G-F-G-F-S-F-A-F-D-F-G-F ({TAMRA}-FGFGFSFAFDFGF) [Peptide P1-2]”, the Average fluorescence in data set [1] (setting [4]) is 200,280,129; in data set [1] (setting [5]) it was 196,080,891; in data set [1] (setting [6]), 185,727,868; in data set [1] (setting [7]) it was 170,078,218; in data set [1] (setting [8]), 135,695,639; in data set [1] (setting [9]) it was 126,193,156. Moreover, the Corrected signal in data set [1] (setting [4]) was 53,588,457; in data set [1] (setting [5]) it was 58,801,042; in data set [1] (setting [6]), 51,820,628; in data set [1] (Test array, after first wash) it was 15,580,260; in data set [1] (Test array, after second wash) it was 3,248,336; in data set [1] (Test array, after third wash) it was 1,895,931.
In the case of “TAMRA-F-G-F-G-F-G-F-S-F-A-F-D-F-G-F ({TAMRA}-FGFGFGFSFAFDFGF) [Peptide P1-3]”, the Average fluorescence in data set [1] (setting [4]) was 192,743,469; in data set [1] (setting [5]), 187,310,655; in data set [1] (setting [6]), 184,219,147; in data set [1] (setting [7]) it was 171,197,973; in data set [1] (setting [8]), 148,725,456; in data set [1] (setting [9]) it was 125,717,642. Also, the Corrected signal in data set [1] (setting [4]) is 46,051,796; in data set [1] (setting [5]) it was 50,030,806; in data set [1] (setting [6]), 50,311,907; in data set [1] (Test array, after first wash) it was 16,700,014; in data set [1] (Test array, after second wash), 16,278,152; in data set [1] (Test array, after third wash), 1,420,417.
In the case of “TAMRA-F-G-F-G-F-G-F-G-F-G-F-S-F-A-F-D-F-G-F ({TAMRA}-FGFGFGFGFGFSFAFDFGF) [Peptide P1-5]”, the Average fluorescence in data set [1] (setting [4]) is reported as 199,347,483; in data set [1] (setting [5]) it was 190,847,825; in data set [1] (setting [6]), 183,492,293; in data set [1] (setting [7]), 201,991,732; in data set [1] (setting [8]) it was 167,865,473; in data set [1] (setting [9]), 147,812,043. The Corrected signal is listed as 52,655,810 in data set [1] (setting [4]); 53,567,975 in data set [1] (setting [5]); 49,585,053 in data set [1] (setting [6]); 47,493,774 in data set [1] (Test array, after first wash); 35,418,169 in data set [1] (Test array, after second wash); 23,514,817 in data set [1] (Test array, after third wash). Besides, the “retention on polypropylene sheet (in words)” value in data set [1] (compared among P1-1 to P1-5, chain length of 19 amino acids) was “highest retention”.
Consider “TAMRA-F-G-F-G-F-G-F-G-F-S-F-A-F-D-F-G-F ({TAMRA}-FGFGFGFGFSFAFDFGF) [Peptide P1-4]”, for which the Average fluorescence is on record as 187,287,630 in data set [1] (setting [4]); 179,942,418 in data set [1] (setting [5]); 176,102,487 in data set [1] (setting [6]); 189,823,310 in data set [1] (setting [7]); 159,100,527 in data set [1] (setting [8]); 135,681,173 in data set [1] (setting [9]). In addition, the Corrected signal was 40,595,958 in data set [1] (setting [4]); 42,662,569 in data set [1] (setting [5]); 42,195,247 in data set [1] (setting [6]); 35,325,352 in data set [1] (Test array, after first wash); 26,653,223 in data set [1] (Test array, after second wash); 11,383,947 in data set [1] (Test array, after third wash).
Consider “N-TAMRA-Phe-Asp-Phe-Ala-Phe-Ser-Phe-Lys-Phe-C ({TAMRA}-FDFAFSFKF; not fully specified (C-terminus)) [Peptide 2DOS-2]”, for which the “retention on a hydrophobic polypropylene surface over time (in words)” value in data set [2] is on record as “stable for extended periods of time”. Moreover, the “retention on a polypropylene surface versus pH (in words)” value in data set [3] was “stable over a broad range of pH values”.

Values taken from patent US20100105567A1, “NOVEL CAPTURE AGENTS FOR BINDING A LIGAND” (priority 2005, published 2010).
